{"source": "paper PMC11476048", "about": "(Nature, 2024)", "binders": {"B1": {"name": "E. aridi Ubl^BilA (17-97) (domain or fragment, Ensifer aridi TW10)", "chain": "KIEIIVVVNGQPTQVEANPNQPLHVVRTKALENTQNVAQPPDNWEFKDEAGNLLDVDKKIGDFGFANTVTLFLSLKAGVAG"}, "B2": {"name": "E. aridi E2^BilB (1-181, wild type) (enzyme, Ensifer aridi TW10)", "chain": "MPELQTVDPEVSRAKFDREISRFRPYADAYRMQGCFLIEESFPSAFFIFASPKVKPRVIGAAIEIDFTNYDLRPPSVVFVDPFTRQPIARKDLPLNMLRRPQLPGTPPEMISNLIQQNAVSLTDFIQANSLQDSPFLCMAGVREYHDNPAHSGDPWLLHRGSGEGCLAFILDKIIKYGTGP"}, "B3": {"name": "E. aridi E2^BilB (1-181) Mutant 1 (F36R/I48A/I59K/F83E) (enzyme, Ensifer aridi TW10)", "chain": "B2 chain with F36R, I48A, I59K, F83E"}, "B4": {"name": "E. aridi E2^BilB (1-181) Mutant 2 (F36R/I38A/F46K/I48A/I59K/F83E) (enzyme, Ensifer aridi TW10)", "chain": "B2 chain with F36R, I38A, F46K, I48A, I59K, F83E"}}, "key": {"[1]": {"target": "T1, E. aridi E1^BilD (1-507, C417A) (Ensifer aridi TW10, C417A)", "T1 chain": "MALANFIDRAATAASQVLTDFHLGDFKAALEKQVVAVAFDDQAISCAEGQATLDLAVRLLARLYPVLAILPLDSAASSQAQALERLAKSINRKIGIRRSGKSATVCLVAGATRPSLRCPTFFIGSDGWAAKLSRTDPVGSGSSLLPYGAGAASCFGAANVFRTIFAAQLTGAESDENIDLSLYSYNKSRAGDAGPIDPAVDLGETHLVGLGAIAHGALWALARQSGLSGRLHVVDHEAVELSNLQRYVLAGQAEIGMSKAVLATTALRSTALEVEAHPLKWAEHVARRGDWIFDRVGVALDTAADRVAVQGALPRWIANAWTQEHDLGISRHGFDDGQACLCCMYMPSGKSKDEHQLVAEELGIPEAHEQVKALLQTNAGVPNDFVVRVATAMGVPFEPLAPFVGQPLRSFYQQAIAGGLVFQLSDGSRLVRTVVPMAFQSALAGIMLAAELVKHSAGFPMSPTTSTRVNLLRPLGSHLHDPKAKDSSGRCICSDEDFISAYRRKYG", "test": "SEC-MALS"}, "[2]": {"target": "the molecule itself", "test": "SEC-MALS"}}, "note": "Changes are numbered by the printed parent chain. Numbers in names are those of the source.", "data": [{"binder": "B1", "values": [{"measurement": "binding result", "setting": "[1]", "value": "binds"}]}, {"binder": "B2", "values": [{"measurement": "stoichiometry N", "setting": "[2]", "value": 2}, {"measurement": "binding result", "setting": "[1]", "value": "binds"}]}, {"binder": "B3", "values": [{"measurement": "binding result", "setting": "[1]", "value": "binds"}]}, {"binder": "B4", "values": [{"measurement": "binding result", "setting": "[1]", "value": "binds"}]}]}
